Data taken from PMC4876634 (Nature chemical biology, 2016).

Assays:
[1] = target: T1, Suv39h1, wild type (FLAG-tagged, recombinant human) (human, UniProt O43463 1-412); test: pull-down
T1 sequence: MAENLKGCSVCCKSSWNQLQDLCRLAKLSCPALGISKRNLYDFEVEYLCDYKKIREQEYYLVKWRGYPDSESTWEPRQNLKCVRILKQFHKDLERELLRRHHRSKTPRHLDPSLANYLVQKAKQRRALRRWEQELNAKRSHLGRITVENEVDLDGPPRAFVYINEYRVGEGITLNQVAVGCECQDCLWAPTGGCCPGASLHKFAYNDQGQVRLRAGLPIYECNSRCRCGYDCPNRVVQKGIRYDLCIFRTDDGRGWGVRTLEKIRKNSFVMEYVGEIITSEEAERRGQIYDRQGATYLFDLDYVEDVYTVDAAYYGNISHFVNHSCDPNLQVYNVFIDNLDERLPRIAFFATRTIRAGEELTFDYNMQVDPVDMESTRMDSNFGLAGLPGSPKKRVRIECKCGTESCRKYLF

[2] = target: T2, Suv39h1 R24,K27A double mutant (FLAG-tagged) (human, UniProt O43463 1-412, R24A | K27A); test: pull-down
T2 sequence: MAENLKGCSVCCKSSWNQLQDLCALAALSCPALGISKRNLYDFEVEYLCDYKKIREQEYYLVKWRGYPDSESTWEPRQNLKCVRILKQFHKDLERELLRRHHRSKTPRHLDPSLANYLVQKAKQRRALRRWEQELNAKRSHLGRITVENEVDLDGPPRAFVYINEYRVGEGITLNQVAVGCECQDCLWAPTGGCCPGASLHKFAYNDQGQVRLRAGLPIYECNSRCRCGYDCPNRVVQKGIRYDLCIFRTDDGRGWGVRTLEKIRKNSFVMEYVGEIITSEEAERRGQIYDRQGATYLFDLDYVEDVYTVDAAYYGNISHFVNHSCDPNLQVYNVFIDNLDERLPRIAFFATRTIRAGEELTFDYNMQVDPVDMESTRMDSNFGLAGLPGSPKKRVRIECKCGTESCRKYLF

B1: HP1β (human Cbx1), His6-tagged (natural protein)
chain: not shown
binding result [1]: binds
binding result [2]: binds
